Source: patent publication US20240247072A1 (KEYMED BIOSCIENCES, published 2024)

Key:
[1] = molecular target: T1, cynomolgus monkey CD70, full length, on CHO cells (CHO-monkey CD70-D01) (cynomolgus monkey, UniProt A0A2K5WTU9 1-190); assay: flow cytometry, chimeric IgG on CHO-cynomolgus monkey CD70 cells
T1 construct: whole, on cells; Stably transfected CHO cells; also called CHO-cynomolgus monkey CD70
T1 sequence: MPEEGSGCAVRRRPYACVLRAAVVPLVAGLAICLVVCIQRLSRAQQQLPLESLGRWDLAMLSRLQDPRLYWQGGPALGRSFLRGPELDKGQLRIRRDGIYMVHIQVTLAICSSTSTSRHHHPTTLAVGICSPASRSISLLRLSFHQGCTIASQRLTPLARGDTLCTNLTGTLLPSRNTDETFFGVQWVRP
Procedure: Different cells in logarithmic growth phase were taken, blocked with 3% BSA for 30 minutes, and plated to a 96-well U-plate at 5×10⁴ cells/100 μL. The centrifuge was performed at 1100 rpm for 3 minutes. The supernatant was discarded and the cells were gently tapped to be loosening. 50 μL of gradient diluted antibody was added (antibody concentration: from 30 μg/mL, 3-fold dilution for 5 gradients) per well, and incubated at 4° C. for 1 hour. After incubation, 180 μL of 0.5% BSA was added to each well for washing 3 times. 30 μL/well of secondary antibody AlexaFluro647 anti-human IgG (Jackson Immuno Research, Cat. No: 109-606-170) was added and incubated at 4° C. for 45 minutes. At the end of the incubation, each well was washed 3 times with 180 μL of 0.5% BSA and finally resuspended in 50 μL of PBS for iQue (Intellicyt, USA) assay.

[2] = molecular target: T2, recombinant cynomolgus monkey CD70 protein (cynomolgus monkey, UniProt A0A2K5WTU9 39-190); assay: competition ELISA, chimeric IgG titrated, CD27 coated, biotin-CD70, cynomolgus pair
T2 construct: it stands only in column heads ('Monkey', 'Cynomolgus Monkey CD70/CD27') and in result sentences; also called Monkey (ELISA)
T2 sequence: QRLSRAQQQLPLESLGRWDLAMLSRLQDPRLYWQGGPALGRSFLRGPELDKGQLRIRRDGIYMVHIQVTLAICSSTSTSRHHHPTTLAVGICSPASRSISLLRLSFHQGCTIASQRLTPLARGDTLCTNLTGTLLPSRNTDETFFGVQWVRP
Procedure: The recombinant CD27 protein was coated at 1 μg/mL in a 96-well microtiter plate and incubated overnight at 4° C. The next day, the plate was washed 3 times with PBS, added with 200 μL of 2% defatted dry milk/PBS, blocked at room temperature for 2 hours, and washed once with PBS. The purified chimeric antibody was divided to 12 concentration gradients starting at 100 nM and diluted in a 1:3 gradient. […] of the antibody was added per well and incubated at room temperature for 30 minutes. […] The plate was washed 3 times with PBST and PBS and dried by spinning. A secondary antibody Streptavidin-coupled horseradish peroxidase SA-HRP (BD bioscience, cat. No: 6222697) was diluted with 0.5% BSA in a ratio of 1:8000. 100 μL of the diluent was added into each well and incubated at room temperature for 30 minutes. The plate was washed 3 times with PBST and PBS and dried by spinning. 100 μl of color development solution (TMB solution, Sigma, Cat. No: T2885) was added into each well and protected from light at 37° C. for reaction. After the substrate developed moderately, 50 μl of H₂SO₄ was added into each well to terminate the reaction. The OD450 nm was determined by using an enzyme-linked detector within 30 minutes, and the data was collected. The results were calculated by using Graph Pad Prism 5 software.

[3] = molecular target: T1, cynomolgus monkey CD70, full length, on …; assay: FACS (iQue) on CHO-cynomolgus monkey CD70 stably transfected cells, Alexa Fluor 647 anti-human IgG secondary antibody
Procedure: (§1) The supernatant was discarded and the cells were gently tapped to be loosening. 50 μL of gradient diluted antibodies were added (antibody concentration: from 30 μg/mL, 3-fold dilution for 8 gradients) per well, and incubated at 4° C. for 1 hour. After incubation, 200 μL of 0.5% BSA was added to each well for washing 3 times. 50 μL/well of secondary antibody Alexa Fluro647 anti-human IgG (Jackson ImmunoResearch, Cat. No: 109-606-170) was added and incubated at 4° C. for 45 minutes. At the end of the incubation, each well was washed 3 times with 180 μL of 0.5% BSA and finally resuspended in 50 μL of PBS for iQue (Intellicyt) assay.

[4] = molecular target: T3, human CD70, full length, on CHO cells (CHO-human CD70-B07) (human, UniProt P32970 1-193); assay: flow cytometry, chimeric IgG on CHO-human CD70 cells
T3 construct: whole, on cells; Stably transfected CHO cells; also called CHO-CD70
T3 sequence (looked up): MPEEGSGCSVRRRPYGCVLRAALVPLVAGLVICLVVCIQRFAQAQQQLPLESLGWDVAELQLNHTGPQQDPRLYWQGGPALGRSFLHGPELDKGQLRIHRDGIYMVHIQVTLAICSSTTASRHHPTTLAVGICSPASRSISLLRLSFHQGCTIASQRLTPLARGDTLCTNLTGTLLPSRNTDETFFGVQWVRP

[5] = molecular target: T3, human CD70, full length, on CHO cells …; assay: FACS (iQue) on CHO-human CD70 stably transfected cells, Alexa Fluor 647 anti-human IgG secondary antibody
Procedure: as §1

[6] = molecular target: T4, recombinant trimeric protein of human CD70 extracellular region (human CD70 mIgG Fc (knob) / mouse IgG Fc … (human, UniProt P01863 98-330 = IgG part)); assay: competition ELISA, chimeric IgG titrated, CD27 coated, biotin-CD70, human pair
T4 construct: The ELISA and Octet texts say only 'recombinant CD70 protein' / 'CM352 antigen'; also called recombinant human CD70 protein; recombinant CD70 protein
T4 chain 1: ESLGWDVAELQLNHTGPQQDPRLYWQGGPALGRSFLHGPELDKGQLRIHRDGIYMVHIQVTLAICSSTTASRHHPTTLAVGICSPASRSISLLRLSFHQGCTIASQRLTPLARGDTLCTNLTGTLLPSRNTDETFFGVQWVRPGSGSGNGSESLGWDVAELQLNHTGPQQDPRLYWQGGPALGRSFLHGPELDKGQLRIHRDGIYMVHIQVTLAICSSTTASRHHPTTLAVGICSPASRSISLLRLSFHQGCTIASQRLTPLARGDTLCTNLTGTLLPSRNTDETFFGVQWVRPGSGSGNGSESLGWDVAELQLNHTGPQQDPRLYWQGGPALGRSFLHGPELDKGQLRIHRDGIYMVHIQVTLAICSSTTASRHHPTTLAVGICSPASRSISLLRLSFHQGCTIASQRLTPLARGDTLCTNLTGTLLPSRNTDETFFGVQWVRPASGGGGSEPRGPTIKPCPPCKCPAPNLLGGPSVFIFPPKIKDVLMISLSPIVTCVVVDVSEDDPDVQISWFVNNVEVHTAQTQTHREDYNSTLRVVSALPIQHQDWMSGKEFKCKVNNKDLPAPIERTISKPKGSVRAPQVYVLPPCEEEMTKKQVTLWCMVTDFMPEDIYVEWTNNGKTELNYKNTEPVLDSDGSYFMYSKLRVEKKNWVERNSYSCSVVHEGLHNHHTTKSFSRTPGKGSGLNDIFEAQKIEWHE
T4 chain 2: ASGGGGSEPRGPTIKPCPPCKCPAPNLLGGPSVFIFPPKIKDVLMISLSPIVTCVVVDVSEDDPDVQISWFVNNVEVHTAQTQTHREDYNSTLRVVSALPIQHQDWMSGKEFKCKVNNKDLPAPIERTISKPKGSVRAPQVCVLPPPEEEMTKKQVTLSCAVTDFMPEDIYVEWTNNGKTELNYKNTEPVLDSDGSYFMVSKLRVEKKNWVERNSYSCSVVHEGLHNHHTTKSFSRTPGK

B1: 39H5 chimeric antibody (antibody, V domains shown)
VH: EIQLVQSGPELKKPGETVKISCKASGYTFTNYGMNWVKQAPGQGLKWMGWINTYTGEPTYADDFTGRFAFSLETSASTAYLQINNLKNEDMAAYFCAREEDYRYVFNYWGQGTTLTVSS
VL: DIQMIQSTSSLSASLGNRVTISCRASQDISNYLNWYQQKPDGTVKLLIYDTSRLHAGVPSRFSGSGSGTDYSLTISNLEQEDIATYFCQQGVTLPLTFGAGTKLEIK
With B1 the EC50 [1] was 15.1 nM, the IC50 [2] was 0.08 nM and the “EC50 (read off the curve)” value [3] was ~3 nM. For the same binder, the EC50 [4] was 10.2 nM, the “EC50 (read off the curve)” value [5] was ~3 nM and the IC50 [6] was 0.06 nM.
